B1: unnamed (parent)
chain 1: FENAIKKTKNQENNLTLLPIKSTEEEKDDIKNGKDIKKEIDNDKENIKTNNAKDHSTYIKSYLNTNVNDGLKYLFIPSHNSFIKKYSVFNQINDGMLLNEKNDVKNNEDYKNVDYKNVNFLQYDFKELSNYNIANSIDILQEKEGHLDFVIIPHYTFLDYYKHLSYNSIYHKYSTHGKYIAVDAFIKKINERYDQVKSKCNDIKNDLIATIKKLEHPYDINNKNDDSYRYDISEEIDDKSEETDDETEEVEDSIQDTDSNHTPSNKKKNDLMNRTFKKMMDEYNTKKKKLIKCIKNHENDFNKICMDMKNYGTNLFEQLSCYNNNFCNTNGIRYHYDEYIHKLILSVKSKNLNKDLSDMTNILQQSELLLTNLNKKMGSYIYIDTIKFIHKEMKHIFNRIEYHTKIINDKTKIIQDKIKLNIWRTFQKDELLKRILDMSNEYSLFITSDHLRQMLYNTFYSKEKHLNNIFHHLIYVLQMKFNDVPIKMEYFQTYKKNKPLTQ
chain 2: EPGTVFTTVEDLGSKILLTCSLNDSATEVTGHRWLKGGVVLKEDALPGQKTEFKVDSDDQWGEYSCVFLPEPMGTANIQLHGPPRVKAVKSSEHINEGETAMLVCKSESVPPVTDWAWYKITDSEDKALMNGSESRFFVSSSQGRSELHIENLNMEADPGQYRCNGTSSKGSDQAIITLRVRSHLAAL

Variants of: B1
Assay: SPR
Settings: read off a plot; for response (response units): with partner chain of the complex shown, plateau of the highest curve of four 2-fold serial dilutions (600 to 75 nM); for screen value: with partner chain of the complex shown;

Variant | response (response units) | screen value [s]
chain 1 FENAIKKTKNQENNLTLLPIKSTEEEKDDIKNGKDIKKEIDNDKENIKTNNAKDHSTYIKSYLNTNVNDGLKYLFIPSHNSFIKKYSVFNQINDGMLLNEKNDVKNNEDYKNVDYKNVNFLQYDFKELSNYNIANSIDILQEKEGHLDFVIIPHYTFLDYYKHLSYNSIYHKSSTHGKYIAVDAFIKKINERYDQVKSKCNDIKNDLIATIKKLEHPYDINNKNDDSYRYDISEEIDDKSEETDDETEEVEDSIQDTDSNHTPSNKKKNDLMNRTFKKMMDEYNTKKKKLIKCIKNHENDFNKICMDMKNYGTNLFEQLSCYNNNFCNTNGIRYHYDEYIHKLILSVKSKNLNKDLSDMTNILQQSELLLTNLNKKMGSYIYIDTIKFIHKEMKHIFNRIEYHTKIINDKTKIIQDKIKLNIWRTFQKDELLKRILDMSNEYSLFITSDHLRQMLYNTFYSKEKHLNNIFHHLIYVLQMKFNDVPIKMEYFQTYKKNKPLTQ [chain 1 Y173S] | 260 | 2.3
chain 1 FENAIKKTKNQENNLTLLPIKSTEEEKDDIKNGKDIKKEIDNDKENIKTNNAKDHSTYIKSYLNTNVNDGLKYLFIPSHNSFIKKYSVFNQINDGMLLNEKNDVKNNEDYKNVDYKNVNFLQYDFKELSNYNIANSIDILQEKEGHLDFVIIPHYTFLDYYKHLSYNSIYHKYSTHGKYIAVDAFIKKINERYDKVKSKCNDIKNDLIATIKKLEHPYDINNKNDDSYRYDISEEIDDKSEETDDETEEVEDSIQDTDSNHTPSNKKKNDLMNRTFKKMMDEYNTKKKKLIKCIKNHENDFNKICMDMKNYGTNLFEQLSCYNNNFCNTNGIRYHYDEYIHKLILSVKSKNLNKDLSDMTNILQQSELLLTNLNKKMGSYIYIDTIKFIHKEMKHIFNRIEYHTKIINDKTKIIQDKIKLNIWRTFQKDELLKRILDMSNEYSLFITSDHLRQMLYNTFYSKEKHLNNIFHHLIYVLQMKFNDVPIKMEYFQTYKKNKPLTQ [chain 1 Q195K] | 360 | 2.4
chain 1 FENAIKKTKNQENNLTLLPIKSTEEEKDDIKNGKDIKKEIDNDKENIKTNNAKDHSTYIKSYLNTNVNDGLKYLFIPSHNSFIKKYSVFNQINDGMLLNEKNDVKNNEDYKNVDYKNVNFLQYDFKELSNYNIANSIDILQEKEGHLDFVIIPHYTFLDYYKHLSYNSIYHKYSTYGKYIAVDAFIKKINERYDQVKSKCNDIKNDLIATIKKLEHPYDINNKNDDSYRYDISEEIDDKSEETDDETEEVEDSIQDTDSNHTPSNKKKNDLMNRTFKKMMDEYNTKKKKLIKCIKNHENDFNKICMDMKNYGTNLFEQLSCYNNNFCNTNGIRYHYDEYIHKLILSVKSKNLNKDLSDMTNILQQSELLLTNLNKKMGSYIYIDTIKFIHKEMKHIFNRIEYHTKIINDKTKIIQDKIKLNIWRTFQKDELLKRILDMSNEYSLFITSDHLRQMLYNTFYSKEKHLNNIFHHLIYVLQMKFNDVPIKMEYFQTYKKNKPLTQ [chain 1 H176Y] | 340 | 2.4
chain 1 FENAIKKTKNQENNLTLLPIKSTEEEKDDIKNGKDIKKEIDNDKENIKTNNAKDHSTYIKSYLNTNVNDGLKYLFIPSHNSFIKKYSVFNQINDGMLLNEKNDVKNNEDYKNVDYKNVNFLQYHFKELSNYNIANSIDILQEKEGHLDFVIIPHYTFLDYYKHLSYNSIYHKYSTHGKYIAVDAFIKKINERYDQVKSKCNDIKNDLIATIKKLEHPYDINNKNDDSYRYDISEEIDDKSEETDDETEEVEDSIQDTDSNHTPSNKKKNDLMNRTFKKMMDEYNTKKKKLIKCIKNHENDFNKICMDMKNYGTNLFEQLSCYNNNFCNTNGIRYHYDEYIHKLILSVKSKNLNKDLSDMTNILQQSELLLTNLNKKMGSYIYIDTIKFIHKEMKHIFNRIEYHTKIINDKTKIIQDKIKLNIWRTFQKDELLKRILDMSNEYSLFITSDHLRQMLYNTFYSKEKHLNNIFHHLIYVLQMKFNDVPIKMEYFQTYKKNKPLTQ [chain 1 D124H] | 220 | 2.6
chain 1 FENAIKKTKNQENNLTLLPIKSTEEEKDDIKNGKDIKKEIDNDKENIKTNNAKDHSTYIKSYLNTNVNDGLKYLFIPSHNSFIKKYSVFNQINDGMLLNEKNDVKNNEDYKNVDYKNVNFLQYDFKELSNYNIANSIDILQEKEGHLDFVIIPHYTFLDYYKHLSYNSIYHKYSTHGKYIAVDAFIKKINETYDQVKSKCNDIKNDLIATIKKLEHPYDINNKNDDSYRYDISEEIDDKSEETDDETEEVEDSIQDTDSNHTPSNKKKNDLMNRTFKKMMDEYNTKKKKLIKCIKNHENDFNKICMDMKNYGTNLFEQLSCYNNNFCNTNGIRYHYDEYIHKLILSVKSKNLNKDLSDMTNILQQSELLLTNLNKKMGSYIYIDTIKFIHKEMKHIFNRIEYHTKIINDKTKIIQDKIKLNIWRTFQKDELLKRILDMSNEYSLFITSDHLRQMLYNTFYSKEKHLNNIFHHLIYVLQMKFNDVPIKMEYFQTYKKNKPLTQ [chain 1 R192T] | 180 | 2.3
chain 1 FENAIKKTKNQENNLTLLPIKSTEEEKDDIKNGKDIKKEIDNDKENIKTNNAKDHSTYIKSYLNTNVNDGLKYLFIPSHNSFIKKYSVFNQINDGMLLNEKNDVKNNEDYKNVDYKNVNFLQYDFKELSNYNIANSIDILQEKEGHLDFVIIPHYTFLDYYKHLSYNSIYHKYSTHGKCIAVDAFIKKINERYDQVKSKCNDIKNDLIATIKKLEHPYDINNKNDDSYRYDISEEIDDKSEETDDETEEVEDSIQDTDSNHTPSNKKKNDLMNRTFKKMMDEYNTKKKKLIKCIKNHENDFNKICMDMKNYGTNLFEQLSCYNNNFCNTNGIRYHYDEYIHKLILSVKSKNLNKDLSDMTNILQQSELLLTNLNKKMGSYIYIDTIKFIHKEMKHIFNRIEYHTKIINDKTKIIQDKIKLNIWRTFQKDELLKRILDMSNEYSLFITSDHLRQMLYNTFYSKEKHLNNIFHHLIYVLQMKFNDVPIKMEYFQTYKKNKPLTQ [chain 1 Y179C] | 130 | 1.5

From PMC6793842
